This assay deals with human IL-12 receptor on cells (human) (UniProt P42701). In words: cell-based or functional assay.

Drawing on US20240010696A1, this text covers EC50 (ug/ml) hIL12R+ PD1+ cells (pSTAT4 reporter cell line, PD1-positive) and EC50 (ug/ml) hIL12R+ cells (pSTAT4 reporter cell line, PD1-negative) for one substance.

Chain of human IL-12 receptor on cells (human) (Q99665 24-862, chain 2 of 2, other chains not shown): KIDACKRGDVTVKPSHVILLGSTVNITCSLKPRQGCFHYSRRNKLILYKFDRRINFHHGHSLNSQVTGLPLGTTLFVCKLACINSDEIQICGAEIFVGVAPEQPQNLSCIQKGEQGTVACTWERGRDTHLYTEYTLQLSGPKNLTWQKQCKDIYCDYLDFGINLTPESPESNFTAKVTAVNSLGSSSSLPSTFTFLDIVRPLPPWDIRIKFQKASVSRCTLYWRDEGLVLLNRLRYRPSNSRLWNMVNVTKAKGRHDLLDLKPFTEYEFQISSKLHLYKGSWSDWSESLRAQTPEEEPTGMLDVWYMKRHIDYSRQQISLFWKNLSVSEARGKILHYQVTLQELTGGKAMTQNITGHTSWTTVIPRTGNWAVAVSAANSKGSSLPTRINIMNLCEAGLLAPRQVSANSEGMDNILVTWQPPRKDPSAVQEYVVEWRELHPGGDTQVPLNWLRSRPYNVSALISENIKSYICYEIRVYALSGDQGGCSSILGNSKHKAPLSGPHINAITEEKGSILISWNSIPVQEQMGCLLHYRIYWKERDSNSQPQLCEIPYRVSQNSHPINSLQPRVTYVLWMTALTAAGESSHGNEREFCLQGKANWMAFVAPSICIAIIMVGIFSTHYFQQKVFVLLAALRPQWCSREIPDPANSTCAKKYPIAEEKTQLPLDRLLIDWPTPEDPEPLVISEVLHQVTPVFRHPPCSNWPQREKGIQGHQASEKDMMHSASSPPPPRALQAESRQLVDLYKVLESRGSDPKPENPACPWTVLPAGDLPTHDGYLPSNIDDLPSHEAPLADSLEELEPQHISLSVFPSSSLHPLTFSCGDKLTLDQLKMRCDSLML

WT IL-12 (row of Table 10) had an EC50 (ug/ml) hIL12R+ PD1+ cells (pSTAT4 reporter cell line, PD1-positive) of 0.03 µg/ml and an EC50 (ug/ml) hIL12R+ cells (pSTAT4 reporter cell line, PD1-negative) of 0.1 µg/ml.
